Measurements taken from the supplement of paper PMC9112550, “Optimization of the antimicrobial peptide Bac7 by deep mutational scanning” (BMC Biology, 2022).

What follows are sequences tested on Escherichia coli TOP10 (assay: shrunken log2 fold change of peptide-encoding DNA abundance (4.5 h post-induction vs induction); higher = less antimicrobial activity (less host growth inhibition)). Details: time post-induction: 4.5 h; library: site-saturation at positions 5, 18, 19, 20.
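Note: peptides expressed intracellularly from a pBAD plasmid library in pooled LB shake-flask culture, induced with 0.3% L-arabinose, DNA abundance read by NGS, three biological replicates, DESeq2 with apeglm shrinkage.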

Row | Sequence | shrunken log2 fold change
1 | RRIRCRPPRLPRPRPRPNTYPRP | -0.774
2 | RRIRCRPPRLPRPRPRPNVSPRP | 0.0773
3 | RRIRCRPPRLPRPRPRPNWQPRP | -0.145
4 | RRIRCRPPRLPRPRPRPNYCPRP | -0.3
5 | RRIRCRPPRLPRPRPRPNYKPRP | -0.831
6 | RRIRCRPPRLPRPRPRPPDCPRP | 0.177
7 | RRIRCRPPRLPRPRPRPPEDPRP | 0.754
8 | RRIRCRPPRLPRPRPRPPETPRP | 0.105
9 | RRIRCRPPRLPRPRPRPPHEPRP | 1.23
10 | RRIRCRPPRLPRPRPRPPIKPRP | -0.0789
11 | RRIRCRPPRLPRPRPRPPIWPRP | 0.134
12 | RRIRCRPPRLPRPRPRPPLNPRP | 0.212
13 | RRIRCRPPRLPRPRPRPPLQPRP | 0.228
14 | RRIRCRPPRLPRPRPRPPNEPRP | 0.309
15 | RRIRCRPPRLPRPRPRPPNGPRP | -0.0741
16 | RRIRCRPPRLPRPRPRPPNKPRP | -0.0142
17 | RRIRCRPPRLPRPRPRPPNLPRP | -0.0983
18 | RRIRCRPPRLPRPRPRPPNPPRP | 0.761
19 | RRIRCRPPRLPRPRPRPPNTPRP | -0.0497
20 | RRIRCRPPRLPRPRPRPPPCPRP | 1.07
21 | RRIRCRPPRLPRPRPRPPPHPRP | 1.3
22 | RRIRCRPPRLPRPRPRPPPIPRP | 0.998
23 | RRIRCRPPRLPRPRPRPPQYPRP | -0.0607
24 | RRIRCRPPRLPRPRPRPPSLPRP | 0.413
25 | RRIRCRPPRLPRPRPRPPSQPRP | 0.355

Row | Sequence | shrunken log2 fold change
26 | RRIRCRPPRLPRPRPRPPVHPRP | -0.112
27 | RRIRCRPPRLPRPRPRPPVNPRP | -0.0382
28 | RRIRCRPPRLPRPRPRPPWCPRP | -0.123
29 | RRIRCRPPRLPRPRPRPPYWPRP | 0.279
30 | RRIRCRPPRLPRPRPRPQAAPRP | 0.225
31 | RRIRCRPPRLPRPRPRPQAFPRP | -0.00585
32 | RRIRCRPPRLPRPRPRPQATPRP | 0.122
33 | RRIRCRPPRLPRPRPRPQAWPRP | -0.23
34 | RRIRCRPPRLPRPRPRPQAYPRP | 0.0414
35 | RRIRCRPPRLPRPRPRPQCSPRP | -0.0788
36 | RRIRCRPPRLPRPRPRPQEMPRP | -0.627
37 | RRIRCRPPRLPRPRPRPQGIPRP | 0.158
38 | RRIRCRPPRLPRPRPRPQGKPRP | -0.145
39 | RRIRCRPPRLPRPRPRPQGQPRP | 0.155
40 | RRIRCRPPRLPRPRPRPQILPRP | -0.354
41 | RRIRCRPPRLPRPRPRPQKCPRP | -0.0526
42 | RRIRCRPPRLPRPRPRPQKLPRP | -0.188
43 | RRIRCRPPRLPRPRPRPQLSPRP | 0.122
44 | RRIRCRPPRLPRPRPRPQMSPRP | -0.201
45 | RRIRCRPPRLPRPRPRPQNVPRP | -0.749
46 | RRIRCRPPRLPRPRPRPQQNPRP | 0.0237
47 | RRIRCRPPRLPRPRPRPQQQPRP | 0.339
48 | RRIRCRPPRLPRPRPRPQRTPRP | 0.288
49 | RRIRCRPPRLPRPRPRPQSDPRP | -0.69
50 | RRIRCRPPRLPRPRPRPQTAPRP | 0.225

Row | Sequence | shrunken log2 fold change
51 | RRIRCRPPRLPRPRPRPQTSPRP | -0.209
52 | RRIRCRPPRLPRPRPRPQYRPRP | -2.05
53 | RRIRCRPPRLPRPRPRPRCNPRP | 0.00442
54 | RRIRCRPPRLPRPRPRPRCWPRP | 0.502
55 | RRIRCRPPRLPRPRPRPRDMPRP | -0.167
56 | RRIRCRPPRLPRPRPRPREIPRP | 0.218
57 | RRIRCRPPRLPRPRPRPRFCPRP | 0.071
58 | RRIRCRPPRLPRPRPRPRFHPRP | -0.393
59 | RRIRCRPPRLPRPRPRPRHAPRP | 0.451
60 | RRIRCRPPRLPRPRPRPRHGPRP | 0.116
61 | RRIRCRPPRLPRPRPRPRIIPRP | -0.443
62 | RRIRCRPPRLPRPRPRPRKGPRP | 0.201
63 | RRIRCRPPRLPRPRPRPRLMPRP | 0.174
64 | RRIRCRPPRLPRPRPRPRLNPRP | 0.00503
65 | RRIRCRPPRLPRPRPRPRLQPRP | 0.425
66 | RRIRCRPPRLPRPRPRPRLWPRP | 1.01
67 | RRIRCRPPRLPRPRPRPRMFPRP | 0.0907
68 | RRIRCRPPRLPRPRPRPRMVPRP | 0.205
69 | RRIRCRPPRLPRPRPRPRQNPRP | 0.226
70 | RRIRCRPPRLPRPRPRPRRFPRP | 0.338
71 | RRIRCRPPRLPRPRPRPRRPPRP | 0.654
72 | RRIRCRPPRLPRPRPRPRRSPRP | 0.762
73 | RRIRCRPPRLPRPRPRPRSTPRP | 0.0137
74 | RRIRCRPPRLPRPRPRPRVGPRP | 0.472
75 | RRIRCRPPRLPRPRPRPRVLPRP | 3.12

Row | Sequence | shrunken log2 fold change
76 | RRIRCRPPRLPRPRPRPRWDPRP | -0.128
77 | RRIRCRPPRLPRPRPRPRYNPRP | -0.465
78 | RRIRCRPPRLPRPRPRPSALPRP | -0.0403
79 | RRIRCRPPRLPRPRPRPSAMPRP | 0.272
80 | RRIRCRPPRLPRPRPRPSANPRP | 0.0237
81 | RRIRCRPPRLPRPRPRPSCNPRP | 0.329
82 | RRIRCRPPRLPRPRPRPSDRPRP | -0.473
83 | RRIRCRPPRLPRPRPRPSDSPRP | -0.34
84 | RRIRCRPPRLPRPRPRPSDWPRP | -0.0723
85 | RRIRCRPPRLPRPRPRPSDYPRP | -1.15
86 | RRIRCRPPRLPRPRPRPSFKPRP | -0.75
87 | RRIRCRPPRLPRPRPRPSFNPRP | -0.882
88 | RRIRCRPPRLPRPRPRPSFVPRP | -0.68
89 | RRIRCRPPRLPRPRPRPSFWPRP | -0.0552
90 | RRIRCRPPRLPRPRPRPSHDPRP | -0.235
91 | RRIRCRPPRLPRPRPRPSIDPRP | -0.505
92 | RRIRCRPPRLPRPRPRPSKVPRP | -0.156
93 | RRIRCRPPRLPRPRPRPSLLPRP | -0.386
94 | RRIRCRPPRLPRPRPRPSMEPRP | -0.344
95 | RRIRCRPPRLPRPRPRPSMGPRP | -0.169
96 | RRIRCRPPRLPRPRPRPSMYPRP | -0.418
97 | RRIRCRPPRLPRPRPRPSNDPRP | -0.451
98 | RRIRCRPPRLPRPRPRPSNRPRP | -0.253
99 | RRIRCRPPRLPRPRPRPSQNPRP | -0.141
100 | RRIRCRPPRLPRPRPRPSRDPRP | 0.189

Row | Sequence | shrunken log2 fold change
101 | RRIRCRPPRLPRPRPRPSRMPRP | -0.144
102 | RRIRCRPPRLPRPRPRPSRQPRP | 0.222
103 | RRIRCRPPRLPRPRPRPSSKPRP | -0.48
104 | RRIRCRPPRLPRPRPRPSSMPRP | -0.859
105 | RRIRCRPPRLPRPRPRPSSTPRP | -0.855
106 | RRIRCRPPRLPRPRPRPSSWPRP | -0.251
107 | RRIRCRPPRLPRPRPRPSSYPRP | -0.531
108 | RRIRCRPPRLPRPRPRPSWPPRP | -0.155
109 | RRIRCRPPRLPRPRPRPSWVPRP | -0.273
110 | RRIRCRPPRLPRPRPRPSYAPRP | -0.544
111 | RRIRCRPPRLPRPRPRPSYHPRP | 0.811
112 | RRIRCRPPRLPRPRPRPTAAPRP | 1.33
113 | RRIRCRPPRLPRPRPRPTALPRP | 0.216
114 | RRIRCRPPRLPRPRPRPTAYPRP | -0.137
115 | RRIRCRPPRLPRPRPRPTCGPRP | 0.111
116 | RRIRCRPPRLPRPRPRPTCVPRP | -0.0603
117 | RRIRCRPPRLPRPRPRPTECPRP | -0.168
118 | RRIRCRPPRLPRPRPRPTESPRP | 0.101
119 | RRIRCRPPRLPRPRPRPTEYPRP | -0.564
120 | RRIRCRPPRLPRPRPRPTFYPRP | -0.237
121 | RRIRCRPPRLPRPRPRPTHMPRP | -0.173
122 | RRIRCRPPRLPRPRPRPTKDPRP | -0.489
123 | RRIRCRPPRLPRPRPRPTLLPRP | 0.0984
124 | RRIRCRPPRLPRPRPRPTLRPRP | 0.15
125 | RRIRCRPPRLPRPRPRPTLYPRP | -0.396

Row | Sequence | shrunken log2 fold change
126 | RRIRCRPPRLPRPRPRPTMEPRP | -0.088
127 | RRIRCRPPRLPRPRPRPTMPPRP | -0.281
128 | RRIRCRPPRLPRPRPRPTNPPRP | -0.429
129 | RRIRCRPPRLPRPRPRPTNSPRP | -0.336
130 | RRIRCRPPRLPRPRPRPTPAPRP | 0.933
131 | RRIRCRPPRLPRPRPRPTPYPRP | 0.00933
132 | RRIRCRPPRLPRPRPRPTQMPRP | 0.565
133 | RRIRCRPPRLPRPRPRPTQWPRP | 0.202
134 | RRIRCRPPRLPRPRPRPTSMPRP | -0.308
135 | RRIRCRPPRLPRPRPRPTSTPRP | -0.165
136 | RRIRCRPPRLPRPRPRPTTKPRP | -0.0602
137 | RRIRCRPPRLPRPRPRPTVHPRP | -0.413
138 | RRIRCRPPRLPRPRPRPTWVPRP | 0.342
139 | RRIRCRPPRLPRPRPRPVAVPRP | -0.043
140 | RRIRCRPPRLPRPRPRPVCAPRP | 0.264
141 | RRIRCRPPRLPRPRPRPVDFPRP | -0.252
142 | RRIRCRPPRLPRPRPRPVEFPRP | -0.05
143 | RRIRCRPPRLPRPRPRPVEGPRP | 0.0501
144 | RRIRCRPPRLPRPRPRPVEHPRP | 0.0272
145 | RRIRCRPPRLPRPRPRPVFCPRP | -0.131
146 | RRIRCRPPRLPRPRPRPVFIPRP | -0.612
147 | RRIRCRPPRLPRPRPRPVGPPRP | 0.326
148 | RRIRCRPPRLPRPRPRPVHEPRP | -0.073
149 | RRIRCRPPRLPRPRPRPVHNPRP | -0.415
150 | RRIRCRPPRLPRPRPRPVHTPRP | 0.101
